Experimental data as given in article PMC11178898, “A clade of receptor-like cytoplasmic kinases and 14-3-3 proteins coordinate inositol hexaphosphate accumulation” (Nature Communications, 2024).
Each block holds one molecule with its values, some of them ahead of it.

Columns and labels:
IPK2β, Split-LUC fusion = test: Split-LUC; details: cluc-IPK2β, 35S::IPCK1-flag co-infiltrated (1:1:2), parent value is P2 (nluc-GRF4, cluc-IPK2β …), parent: 7442.09
IPK1-HIS = target: T1, IPK1-HIS (Arabidopsis thaliana, UniProt Q93YN9 1-451); test: pull-down; in vitro; GST- and HIS-tagged proteins from E. coli BL21 (DE3); bait on GST or Ni-NTA beads, incubated with the protein of the other tag on ice for 2 h, washed with PBS, blot with anti-HIS and anti-GST; details: both partners purified
T1 construct: IPK1, inositol polyphosphate kinase, Arabidopsis thaliana; the CDS was cloned into pCOLD-TF; source: E. coli BL21 (DE3), pCOLD-TF, purified
T1 sequence (looked up): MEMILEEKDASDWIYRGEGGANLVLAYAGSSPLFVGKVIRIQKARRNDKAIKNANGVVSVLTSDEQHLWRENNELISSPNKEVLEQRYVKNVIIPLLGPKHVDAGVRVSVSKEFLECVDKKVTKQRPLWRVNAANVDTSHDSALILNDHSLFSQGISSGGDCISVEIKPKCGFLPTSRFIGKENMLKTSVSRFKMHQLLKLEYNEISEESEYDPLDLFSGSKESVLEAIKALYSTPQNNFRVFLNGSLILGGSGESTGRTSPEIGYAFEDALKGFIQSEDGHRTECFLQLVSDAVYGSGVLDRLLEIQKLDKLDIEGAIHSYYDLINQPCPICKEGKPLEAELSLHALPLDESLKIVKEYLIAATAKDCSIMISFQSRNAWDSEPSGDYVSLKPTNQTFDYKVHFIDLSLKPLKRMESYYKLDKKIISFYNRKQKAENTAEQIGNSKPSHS

response (cps (average)) (IPK2β, Split-LUC fusion; P3: nluc-GRF4 S242A, Total cps 452167, Areas 116.3): 3890
Molecule: GRF4, Split-LUC fusion (from UniProt P46077) S242A

response (cps (average)) (IPK2β, Split-LUC fusion; P4: nluc-GRF4 S242D, Total cps 2045502, Areas 266): 7690
Molecule: GRF4, Split-LUC fusion (from UniProt P46077) S242D

binding result (IPK1-HIS): binds
B1: GRF4-GST (natural protein, Arabidopsis thaliana, UniProt P46077 1-267, looked up)
chain: MAAPPASSSAREEFVYLAKLAEQAERYEEMVEFMEKVAEAVDKDELTVEERNLLSVAYKNVIGARRASWRIISSIEQKEESRGNDDHVTTIRDYRSKIESELSKICDGILKLLDTRLVPASANGDSKVFYLKMKGDYHRYLAEFKTGQERKDAAEHTLTAYKAAQDIANAELAPTHPIRLGLALNFSVFYYEILNSPDRACNLAKQAFDEAIAELDTLGEESYKDSTLIMQLLRDNLTLWTSDMQDESPEEIKEAAAPKPAEEQKEI
notes: GRF4, 14-3-3 protein, Arabidopsis thaliana; the CDS was cloned into pGEX-4T-1; source: E. coli BL21 (DE3), held on GST beads
